From patent US20220135701A1 (Genentech, published 2022) come the findings set out here.

T1: human MerTK (human, UniProt Q12866 26-499)
T1 construct: also called HuMER
T1 sequence: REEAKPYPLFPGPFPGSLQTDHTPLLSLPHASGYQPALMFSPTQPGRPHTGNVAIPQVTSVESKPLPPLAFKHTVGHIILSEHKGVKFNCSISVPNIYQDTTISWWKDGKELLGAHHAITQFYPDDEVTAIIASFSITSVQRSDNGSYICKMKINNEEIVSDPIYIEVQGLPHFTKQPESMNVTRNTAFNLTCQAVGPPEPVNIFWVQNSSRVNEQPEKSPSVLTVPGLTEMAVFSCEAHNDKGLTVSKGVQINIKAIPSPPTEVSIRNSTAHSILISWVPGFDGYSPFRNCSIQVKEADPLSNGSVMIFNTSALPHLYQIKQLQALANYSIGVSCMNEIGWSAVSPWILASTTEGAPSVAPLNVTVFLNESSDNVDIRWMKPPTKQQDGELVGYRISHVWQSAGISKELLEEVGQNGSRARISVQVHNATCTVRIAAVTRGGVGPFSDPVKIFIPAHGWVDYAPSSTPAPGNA

B1: h13B4.V1 HC F91Y (antibody, name in Kabat numbering, V domains shown)
VH: EQQLVESGEGLVQPGGSLRLSCAVSGFSLSSYAMGWVRQAPGKGLEWIGIINSYGNTYYANWAKGRFTISRDSSKNTVYLQMGSLRAEDMAVYYCARDPGVSSNLWGPGTLVTVSS
VL: DVQMTQSPSTLSASVGDRVTITCQASQNIYSGLAWYQQKPGKPPKLLIYGASKLASGVPSRFSGSGSGTEFTLTISSLQPDDFATYYCQATYYSSNSVAFGGGTKVEIK
notes: Framework variant of h13B4.v1 (human IgG1)
B2: h13B4.V1 HC W47Y (antibody, human IgG1, name in Kabat numbering, V domains shown)
VH: EQQLVESGEGLVQPGGSLRLSCAVSGFSLSSYAMGWVRQAPGKGLEYIGIINSYGNTYYANWAKGRFTISRDSSKNTVYLQMGSLRAEDMAVYFCARDPGVSSNLWGPGTLVTVSS
VL: DVQMTQSPSTLSASVGDRVTITCQASQNIYSGLAWYQQKPGKPPKLLIYGASKLASGVPSRFSGSGSGTEFTLTISSLQPDDFATYYCQATYYSSNSVAFGGGTKVEIK
notes: as for B1
B3: h13B4.V1 HC G49S (antibody, human IgG1, name in Kabat numbering, V domains shown)
VH: EQQLVESGEGLVQPGGSLRLSCAVSGFSLSSYAMGWVRQAPGKGLEWISIINSYGNTYYANWAKGRFTISRDSSKNTVYLQMGSLRAEDMAVYFCARDPGVSSNLWGPGTLVTVSS
VL: DVQMTQSPSTLSASVGDRVTITCQASQNIYSGLAWYQQKPGKPPKLLIYGASKLASGVPSRFSGSGSGTEFTLTISSLQPDDFATYYCQATYYSSNSVAFGGGTKVEIK
notes: as for B1
B4: h13B4.V1 HC V78L (antibody, human IgG1, name in Kabat numbering, V domains shown)
VH: EQQLVESGEGLVQPGGSLRLSCAVSGFSLSSYAMGWVRQAPGKGLEWIGIINSYGNTYYANWAKGRFTISRDSSKNTLYLQMGSLRAEDMAVYFCARDPGVSSNLWGPGTLVTVSS
VL: DVQMTQSPSTLSASVGDRVTITCQASQNIYSGLAWYQQKPGKPPKLLIYGASKLASGVPSRFSGSGSGTEFTLTISSLQPDDFATYYCQATYYSSNSVAFGGGTKVEIK
notes: as for B1
B5: h13B4.V1 HC S73N (antibody, human IgG1, name in Kabat numbering, V domains shown)
VH: EQQLVESGEGLVQPGGSLRLSCAVSGFSLSSYAMGWVRQAPGKGLEWIGIINSYGNTYYANWAKGRFTISRDNSKNTVYLQMGSLRAEDMAVYFCARDPGVSSNLWGPGTLVTVSS
VL: DVQMTQSPSTLSASVGDRVTITCQASQNIYSGLAWYQQKPGKPPKLLIYGASKLASGVPSRFSGSGSGTEFTLTISSLQPDDFATYYCQATYYSSNSVAFGGGTKVEIK
notes: as for B1
B6: h13B4.V1 HC Q2V (antibody, human IgG1, name in Kabat numbering, V domains shown)
VH: EVQLVESGEGLVQPGGSLRLSCAVSGFSLSSYAMGWVRQAPGKGLEWIGIINSYGNTYYANWAKGRFTISRDSSKNTVYLQMGSLRAEDMAVYFCARDPGVSSNLWGPGTLVTVSS
VL: DVQMTQSPSTLSASVGDRVTITCQASQNIYSGLAWYQQKPGKPPKLLIYGASKLASGVPSRFSGSGSGTEFTLTISSLQPDDFATYYCQATYYSSNSVAFGGGTKVEIK
notes: as for B1
B7: h13B4.V1 HC P105R (antibody, name in Kabat numbering, V domains shown)
VH: EQQLVESGEGLVQPGGSLRLSCAVSGFSLSSYAMGWVRQAPGKGLEWIGIINSYGNTYYANWAKGRFTISRDSSKNTVYLQMGSLRAEDMAVYFCARDPGVSSNLWGRGTLVTVSS
VL: DVQMTQSPSTLSASVGDRVTITCQASQNIYSGLAWYQQKPGKPPKLLIYGASKLASGVPSRFSGSGSGTEFTLTISSLQPDDFATYYCQATYYSSNSVAFGGGTKVEIK
notes: as for B1
B8: h13B4.V1 LC V21 (antibody, human IgG1, V domains shown)
VH: EQQLVESGEGLVQPGGSLRLSCAVSGFSLSSYAMGWVRQAPGKGLEWIGIINSYGNTYYANWAKGRFTISRDSSKNTVYLQMGSLRAEDMAVYFCARDPGVSSNLWGPGTLVTVSS
VL: DIQMTQSPSTLSASVGDRVTITCQASQNIYSGLAWYQQKPGKPPKLLIYGASKLASGVPSRFSGSGSGTEFTLTISSLQPDDFATYYCQATYYSSNSVAFGGGTKVEIK
notes: Framework variant of h13B4.v1 (human IgG1); read as V2I (V at VL position 2 in v1, I in v16); also called LC V2I
B9: h13B4.V1 LC P43A (antibody, human IgG1, name in Kabat numbering, V domains shown)
VH: EQQLVESGEGLVQPGGSLRLSCAVSGFSLSSYAMGWVRQAPGKGLEWIGIINSYGNTYYANWAKGRFTISRDSSKNTVYLQMGSLRAEDMAVYFCARDPGVSSNLWGPGTLVTVSS
VL: DVQMTQSPSTLSASVGDRVTITCQASQNIYSGLAWYQQKPGKAPKLLIYGASKLASGVPSRFSGSGSGTEFTLTISSLQPDDFATYYCQATYYSSNSVAFGGGTKVEIK
notes: as for B1
B10: h13B4.V1 HC V24A (antibody, human IgG1, name in Kabat numbering, V domains shown)
VH: EQQLVESGEGLVQPGGSLRLSCAASGFSLSSYAMGWVRQAPGKGLEWIGIINSYGNTYYANWAKGRFTISRDSSKNTVYLQMGSLRAEDMAVYFCARDPGVSSNLWGPGTLVTVSS
VL: DVQMTQSPSTLSASVGDRVTITCQASQNIYSGLAWYQQKPGKPPKLLIYGASKLASGVPSRFSGSGSGTEFTLTISSLQPDDFATYYCQATYYSSNSVAFGGGTKVEIK
notes: as for B1
B11: h13B4.V1 HC I48V (antibody, human IgG1, name in Kabat numbering, V domains shown)
VH: EQQLVESGEGLVQPGGSLRLSCAVSGFSLSSYAMGWVRQAPGKGLEWVGIINSYGNTYYANWAKGRFTISRDSSKNTVYLQMGSLRAEDMAVYFCARDPGVSSNLWGPGTLVTVSS
VL: DVQMTQSPSTLSASVGDRVTITCQASQNIYSGLAWYQQKPGKPPKLLIYGASKLASGVPSRFSGSGSGTEFTLTISSLQPDDFATYYCQATYYSSNSVAFGGGTKVEIK
notes: as for B1
B12: h10F7.V1 HC F91Y (antibody, name in Kabat numbering, V domains shown)
VH: EQQLVESGGGLVQPGGSLRLSCAVSGFSLSGYAMSWVRQAPGKGLEYIGVISSSGSSYYPSWAKGRFTISKDSSKNTVYLQMGSLRAEDMAVYYCARVQFYVGYAVYGYGIIDRLDLWGQGTLVTVSS
VL: DAVLTQSPDSLAVSLGERATINCQSSKSVYNNNWLSWYQQKPGQPPKLLIYRASTLESGVPDRFSGSGSGTDFTLTISSLQAEDVAVYFCAGGYSSSSSANAFGGGTKVEIK
notes: Framework variant of h10F7.v1 (human IgG1)
B13: h10F7.V1 HC K71R (antibody, human IgG1, name in Kabat numbering, V domains shown)
VH: EQQLVESGGGLVQPGGSLRLSCAVSGFSLSGYAMSWVRQAPGKGLEYIGVISSSGSSYYPSWAKGRFTISRDSSKNTVYLQMGSLRAEDMAVYFCARVQFYVGYAVYGYGIIDRLDLWGQGTLVTVSS
VL: DAVLTQSPDSLAVSLGERATINCQSSKSVYNNNWLSWYQQKPGQPPKLLIYRASTLESGVPDRFSGSGSGTDFTLTISSLQAEDVAVYFCAGGYSSSSSANAFGGGTKVEIK
notes: as for B12
B14: h10F7.V1 HC G49S (antibody, human IgG1, name in Kabat numbering, V domains shown)
VH: EQQLVESGGGLVQPGGSLRLSCAVSGFSLSGYAMSWVRQAPGKGLEYISVISSSGSSYYPSWAKGRFTISKDSSKNTVYLQMGSLRAEDMAVYFCARVQFYVGYAVYGYGIIDRLDLWGQGTLVTVSS
VL: DAVLTQSPDSLAVSLGERATINCQSSKSVYNNNWLSWYQQKPGQPPKLLIYRASTLESGVPDRFSGSGSGTDFTLTISSLQAEDVAVYFCAGGYSSSSSANAFGGGTKVEIK
notes: as for B12
B15: h10F7.V1 HC I48V (antibody, human IgG1, name in Kabat numbering, V domains shown)
VH: EQQLVESGGGLVQPGGSLRLSCAVSGFSLSGYAMSWVRQAPGKGLEYVGVISSSGSSYYPSWAKGRFTISKDSSKNTVYLQMGSLRAEDMAVYFCARVQFYVGYAVYGYGIIDRLDLWGQGTLVTVSS
VL: DAVLTQSPDSLAVSLGERATINCQSSKSVYNNNWLSWYQQKPGQPPKLLIYRASTLESGVPDRFSGSGSGTDFTLTISSLQAEDVAVYFCAGGYSSSSSANAFGGGTKVEIK
notes: as for B12

This experiment has as its target T1, human MerTK. The experiment can be described thus: SPR BIAcore T200, Ab captured, 37C. As to the method: Each humanized mutation variant was subject to BIAcore analysis to determine the important rabbit residues for binding and stability. Binding affinity determinations were obtained using Surface Plasmon Resonance (SRP) measurements from a BIAcore™-T200 instrument. Briefly, each humanized mutation variant antibody was captured to achieve approximately 100 RU (Response Units). Then, 3-fold serial dilutions of human MerTK (0.4 nM to 100 nM) diluted in HBS-EP buffer (0.01M HEPES pH 7.4, 0.15M NaCl, 3 mM EDTA and 0.05% v/v surfactant P20) was injected into the BIAcore™-T200 instrument at 37° C. with a flow rate of 30 μl/min. Association rates (kₒₙ) and dissociation rates (koff) were calculated using a simple one-to-one Langmuir binding model (BIAcore T200 evaluation software version 2.0). The equilibrium dissociation constant (KD) was calculated as the ratio koff/kₒₙ.
By Kd is commonly meant the concentration at which binding is half-saturated. Higher therefore signals a looser complex. Molecule B1 returned an equilibrium dissociation constant (Kd) of 4.5 nM.
For B2, the Kd is 3.1 nM.
Then B3, with 51.5 nM; and B4, with 9.2 nM; and B5, with 4.7 nM.
Then B6, with 4.5 nM.
The molecule B7 showed a Kd of 4.2 nM.
B8 returned a dissociation constant (Kd) of 5.6 nM.
Then B9, with 4.6 nM.
As to B10, the dissociation constant Kd was found to be 6 nM.
As for B11, the figure is 5.8 nM; as for B12, 6.4 nM; as for B13, 15.3 nM.
As for B14, the figure is 9.5 nM; as for B15, 9.3 nM.
